Positions count from the first letter of the chain named.

The target in assay [1] is D614G-Hexapro (WT) spike ectodomain (SARS-CoV-2 Wuhan-Hu-1 D614G, D614G). The assay can be described thus: BLI. A general note: Biolayer interferometry detects binding as a change in optical thickness at a sensor tip.
The target of assay [2] is Omicron BA.1 spike protein ectodomain (BLI) (SARS-CoV-2 Omicron BA.1, strain). Nature of the assay: BLI.

B1: 0324-LN3_T65H (antibody, V domains shown)
VH: QVQLQQWGPGLVNPSETLSLTCSVSGGSFATENYYWSWIRQHPGEGLEWIGNIYFSGNHYYNPSLNNRFTISFDTSKNHLSLKLPSVTAADTAVYYCARGTIYFDLSGYRRVDPFHIWGQGTMVIVSS
VL: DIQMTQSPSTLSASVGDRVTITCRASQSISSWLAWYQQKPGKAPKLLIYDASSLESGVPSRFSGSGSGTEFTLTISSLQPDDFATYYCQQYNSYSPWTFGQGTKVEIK
notes: source: Expi293F, transfected
As a reminder, the Kd is a measure of binding affinity in units of concentration. High values mean weaker binding, low ones tighter binding. One may read the koff as the first-order rate constant of dissociation. As a reminder, the kon is the rate constant with which the complex forms. Read a low kon as slow association. Take B1: in assay [1], the Kd worked out at 0.276 nM, the dissociation rate constant (koff) came to 0.000291 s⁻¹ and the kon is 1.06e+06 M⁻¹ s⁻¹. Further, in assay [2], the affinity, expressed as Kd, was 1.16 nM; the koff came to 0.000413 s⁻¹; the kon worked out at 356000 M⁻¹ s⁻¹.

B2: 0311-IN3_T65P (antibody, V domains shown)
VH: B1 VH with H59P, L106I
VL: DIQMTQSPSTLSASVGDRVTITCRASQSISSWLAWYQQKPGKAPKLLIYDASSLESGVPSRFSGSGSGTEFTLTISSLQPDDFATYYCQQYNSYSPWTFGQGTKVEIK
notes: source: Expi293F, transfected
As to B2, in assay [1], binding was put at a Kd of 200 nM, the koff is 0.000578 s⁻¹ and the kon came to 2890 M⁻¹ s⁻¹. In assay [2], this molecule returned a Kd of 10.9 nM, an off-rate (koff) of 0.000965 s⁻¹ and a kon of 88200 M⁻¹ s⁻¹.

B3: 0316-IN3_T65V (antibody, V domains shown)
VH: B1 VH with H59V, L106I
VL: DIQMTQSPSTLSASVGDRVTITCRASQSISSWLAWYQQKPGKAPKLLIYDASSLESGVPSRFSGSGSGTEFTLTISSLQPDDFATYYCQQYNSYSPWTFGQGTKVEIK
notes: source: Expi293F, transfected
Turning to B3, in assay [1], the Kd was 89.3 nM, the koff was 2.62e-05 s⁻¹ and the kon is 294 M⁻¹ s⁻¹. In assay [2], binding was put at a Kd of 10.6 nM, the koff amounted to 0.000555 s⁻¹ and the kon is 52400 M⁻¹ s⁻¹.

B4: 0373-N3_T65V (antibody, V domains shown)
VH: B1 VH with H59V, L106R
VL: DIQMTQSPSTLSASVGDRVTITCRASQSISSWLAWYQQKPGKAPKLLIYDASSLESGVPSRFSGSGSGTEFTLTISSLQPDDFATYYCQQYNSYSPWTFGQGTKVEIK
notes: source: Expi293F, transfected
In assay [1], B4 showed a Kd of 324 nM, a koff of 0.000461 s⁻¹ and a kon of 1420 M⁻¹ s⁻¹. In assay [2], binding was characterised by a dissociation constant (Kd) of 16 nM, the koff stood at 0.000565 s⁻¹ and the kon amounted to 35200 M⁻¹ s⁻¹.

B5: 0313-IN3_T65R (antibody, V domains shown)
VH: B1 VH with H59R, L106I
VL: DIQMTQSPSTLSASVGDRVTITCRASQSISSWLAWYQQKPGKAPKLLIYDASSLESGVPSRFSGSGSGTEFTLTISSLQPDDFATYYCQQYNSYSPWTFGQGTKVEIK
notes: source: Expi293F, transfected
In assay [1], B5 came in with a dissociation constant (Kd) of 0.873 nM, a koff of 0.000516 s⁻¹ and an on-rate (kon) of 591000 M⁻¹ s⁻¹. Moreover, in assay [2], binding was characterised by a dissociation constant (Kd) of 7.36 nM, the koff was determined as 0.000758 s⁻¹ and the kon came to 103000 M⁻¹ s⁻¹.

B6: 0314-IN3_T65S (antibody, V domains shown)
VH: B1 VH with H59S, L106I
VL: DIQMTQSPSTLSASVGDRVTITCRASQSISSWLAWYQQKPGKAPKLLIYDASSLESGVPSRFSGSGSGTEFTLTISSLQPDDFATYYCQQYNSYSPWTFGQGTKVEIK
notes: source: Expi293F, transfected
As for B6, in assay [2], binding was characterised by a dissociation constant (Kd) of 68.7 nM, the koff worked out at 0.00114 s⁻¹ and the kon came out at 16600 M⁻¹ s⁻¹.

B7: 0307-IN3_T65K (antibody, V domains shown)
VH: B1 VH with H59K, L106I
VL: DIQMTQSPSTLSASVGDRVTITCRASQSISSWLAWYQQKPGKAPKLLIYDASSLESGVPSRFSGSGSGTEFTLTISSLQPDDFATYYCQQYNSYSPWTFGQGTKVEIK
notes: source: Expi293F, transfected
In assay [1], B7 displayed a dissociation constant Kd of 0.208 nM, a koff of 5.6e-05 s⁻¹ and a kon of 269000 M⁻¹ s⁻¹. In assay [2], the Kd turned out to be 31.7 nM, the koff was found to be 0.000872 s⁻¹ and the kon was found to be 27500 M⁻¹ s⁻¹.

B8: 0303-IN3_T65F (antibody, V domains shown)
VH: B1 VH with H59F, L106I
VL: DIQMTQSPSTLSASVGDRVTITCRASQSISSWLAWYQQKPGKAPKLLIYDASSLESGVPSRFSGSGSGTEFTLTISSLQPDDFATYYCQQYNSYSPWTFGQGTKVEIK
notes: source: Expi293F, transfected
In assay [1], B8 returned a Kd of 0.129 nM, a koff of 0.000115 s⁻¹ and a kon of 887000 M⁻¹ s⁻¹. Moreover, in assay [2], the Kd was found to be 6.04 nM, the koff stood at 0.000575 s⁻¹ and the on-rate (kon) is 95200 M⁻¹ s⁻¹.

B9: 0337-LN3_T65Y (antibody, V domains shown)
VH: B1 VH with H59Y
VL: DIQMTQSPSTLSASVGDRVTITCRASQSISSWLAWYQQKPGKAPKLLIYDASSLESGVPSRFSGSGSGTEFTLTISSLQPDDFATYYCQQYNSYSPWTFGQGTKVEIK
notes: source: Expi293F, transfected
As for B9, in assay [1], the Kd is 87.3 nM, the koff amounted to 0.000393 s⁻¹ and the kon came out at 4500 M⁻¹ s⁻¹. In assay [2], the Kd was 11.7 nM, the koff came out at 0.000305 s⁻¹ and the kon is 26100 M⁻¹ s⁻¹.

B10: 0360-N3_T65F (antibody, V domains shown)
VH: B1 VH with H59F, L106R
VL: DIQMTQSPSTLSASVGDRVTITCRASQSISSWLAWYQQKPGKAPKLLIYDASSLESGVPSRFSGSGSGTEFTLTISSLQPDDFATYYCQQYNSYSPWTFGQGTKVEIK
notes: source: Expi293F, transfected
In assay [1], B10 returned an equilibrium dissociation constant (Kd) of 355 nM, a koff of 0.000217 s⁻¹ and a kon of 612 M⁻¹ s⁻¹. Moreover, in assay [2], the Kd came out at 18.5 nM, the dissociation rate constant (koff) is 0.000659 s⁻¹ and the on-rate constant (kon) stood at 35700 M⁻¹ s⁻¹.

B11: 0300-IN3_T65A (antibody, V domains shown)
VH: B1 VH with H59A, L106I
VL: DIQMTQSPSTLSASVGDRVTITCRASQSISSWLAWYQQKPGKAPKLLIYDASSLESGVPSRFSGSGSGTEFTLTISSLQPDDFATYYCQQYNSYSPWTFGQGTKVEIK
notes: source: Expi293F, transfected
Take B11: the kon in assay [1] worked out at 210 M⁻¹ s⁻¹. Also, in assay [2], binding was characterised by a dissociation constant (Kd) of 3.61 nM, the koff stood at 0.000404 s⁻¹ and the kon was found to be 112000 M⁻¹ s⁻¹.

B12: 0312-IN3_T65Q (antibody, V domains shown)
VH: B1 VH with H59Q, L106I
VL: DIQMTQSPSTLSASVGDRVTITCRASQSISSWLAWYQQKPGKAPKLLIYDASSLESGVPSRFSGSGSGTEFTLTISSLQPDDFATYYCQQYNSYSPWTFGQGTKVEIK
notes: source: Expi293F, transfected
In assay [1], B12 gave an equilibrium dissociation constant (Kd) of 2.23 nM, a dissociation rate constant (koff) of 0.000511 s⁻¹ and a kon of 229000 M⁻¹ s⁻¹. In assay [2], the Kd was 13.2 nM, the off-rate constant (koff) worked out at 0.000887 s⁻¹ and the kon is 67300 M⁻¹ s⁻¹.

B13: 0306-IN3_T65I (antibody, V domains shown)
VH: B1 VH with H59I, L106I
VL: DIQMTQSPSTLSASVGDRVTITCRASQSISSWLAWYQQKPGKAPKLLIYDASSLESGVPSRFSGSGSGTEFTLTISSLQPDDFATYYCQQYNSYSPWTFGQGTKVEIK
notes: source: Expi293F, transfected
B13: in assay [1], the affinity, expressed as Kd, was 524 nM; the koff is 0.000136 s⁻¹; the kon stood at 259 M⁻¹ s⁻¹. Moreover, in assay [2], the dissociation constant (Kd) was 4.36 nM, the off-rate constant (koff) came to 0.000517 s⁻¹ and the kon amounted to 119000 M⁻¹ s⁻¹.

B14: 0308-IN3_T65L (antibody, V domains shown)
VH: B1 VH with H59L, L106I
VL: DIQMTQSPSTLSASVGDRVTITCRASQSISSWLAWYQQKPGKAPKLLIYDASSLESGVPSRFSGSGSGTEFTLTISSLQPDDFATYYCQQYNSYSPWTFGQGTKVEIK
notes: source: Expi293F, transfected
In assay [1], B14 yielded a Kd of 515 nM, a koff of 0.000134 s⁻¹ and a kon of 261 M⁻¹ s⁻¹. In assay [2], this molecule returned a Kd of 3.92 nM, an off-rate (koff) of 0.000364 s⁻¹ and a kon of 93000 M⁻¹ s⁻¹.

B15: 0309-IN3_T65M (antibody, V domains shown)
VH: B1 VH with H59M, L106I
VL: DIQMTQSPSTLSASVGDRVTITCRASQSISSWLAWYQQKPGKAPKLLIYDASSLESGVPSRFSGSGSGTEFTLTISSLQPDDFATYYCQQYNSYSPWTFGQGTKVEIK
notes: source: Expi293F, transfected
In turn, B15 showed a kon in assay [1] of 184 M⁻¹ s⁻¹. In assay [2], the Kd was 15.7 nM, the koff amounted to 0.00102 s⁻¹ and the kon came to 64800 M⁻¹ s⁻¹.

B16: 0317-IN3_T65W (antibody, V domains shown)
VH: B1 VH with H59W, L106I
VL: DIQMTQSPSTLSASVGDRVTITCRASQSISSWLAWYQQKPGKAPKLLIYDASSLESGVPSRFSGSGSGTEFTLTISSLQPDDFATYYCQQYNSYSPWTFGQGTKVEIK
notes: source: Expi293F, transfected
For B16, in assay [1], the Kd was 1.41 nM, the off-rate constant (koff) is 0.000282 s⁻¹ and the kon was 199000 M⁻¹ s⁻¹. In assay [2], this molecule came in with a Kd of 16.3 nM, an off-rate (koff) of 0.000834 s⁻¹ and a kon of 51200 M⁻¹ s⁻¹.

B17: 0332-LN3_T65R (antibody, V domains shown)
VH: B1 VH with H59R
VL: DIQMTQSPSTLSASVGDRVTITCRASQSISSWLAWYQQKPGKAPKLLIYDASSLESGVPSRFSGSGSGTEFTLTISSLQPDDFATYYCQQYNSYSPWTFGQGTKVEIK
notes: source: Expi293F, transfected
Turning to B17, in assay [2], the Kd came out at 38.9 nM, the off-rate (koff) came to 0.0018 s⁻¹ and the kon is 46200 M⁻¹ s⁻¹.

B18: 0302-IN3_T65E (antibody, V domains shown)
VH: B1 VH with H59E, L106I
VL: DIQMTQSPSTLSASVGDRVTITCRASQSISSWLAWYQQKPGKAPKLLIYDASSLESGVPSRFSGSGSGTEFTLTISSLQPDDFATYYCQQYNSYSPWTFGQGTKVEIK
notes: source: Expi293F, transfected
In assay [1], B18 registered a Kd of 776 nM, a koff of 0.000163 s⁻¹ and a kon of 210 M⁻¹ s⁻¹. In assay [2], this molecule had a dissociation constant (Kd) of 8.27 nM, a koff of 0.000634 s⁻¹ and a kon of 76700 M⁻¹ s⁻¹.

B19: 0305-IN3_T65H (antibody, V domains shown)
VH: B1 VH with L106I
VL: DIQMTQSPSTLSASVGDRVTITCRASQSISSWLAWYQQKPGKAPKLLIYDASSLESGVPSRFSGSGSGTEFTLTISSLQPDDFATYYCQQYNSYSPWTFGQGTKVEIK
notes: source: Expi293F, transfected
Consider B19, for which, in assay [1], the affinity, expressed as Kd, was 387 nM; the koff turned out to be 9.99e-05 s⁻¹; the kon came to 258 M⁻¹ s⁻¹. In assay [2], this molecule showed an equilibrium dissociation constant (Kd) of 2.89 nM, a koff of 0.000368 s⁻¹ and an on-rate (kon) of 128000 M⁻¹ s⁻¹.

B20: 0342-MN3_T65G (antibody, V domains shown)
VH: B1 VH with H59G, L106M
VL: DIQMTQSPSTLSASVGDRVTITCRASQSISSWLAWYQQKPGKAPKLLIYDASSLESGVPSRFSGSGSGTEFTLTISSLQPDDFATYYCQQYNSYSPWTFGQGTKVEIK
notes: source: Expi293F, transfected
In assay [1], B20 gave a dissociation constant Kd of 69.1 nM, a koff of 0.000217 s⁻¹ and an on-rate constant (kon) of 3140 M⁻¹ s⁻¹. In assay [2], the dissociation constant (Kd) worked out at 8.08 nM, the koff worked out at 0.000428 s⁻¹ and the kon is 53000 M⁻¹ s⁻¹.

B21: 0333-LN3_T65S (antibody, V domains shown)
VH: B1 VH with H59S
VL: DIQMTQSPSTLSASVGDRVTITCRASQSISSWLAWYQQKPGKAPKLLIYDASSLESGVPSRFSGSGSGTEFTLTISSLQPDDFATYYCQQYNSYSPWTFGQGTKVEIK
notes: source: Expi293F, transfected
B21: in assay [1], the Kd was found to be 146 nM, the koff is 4.17e-05 s⁻¹ and the kon was determined as 285 M⁻¹ s⁻¹. In assay [2], this molecule yielded a Kd of 11.7 nM, a koff of 0.000566 s⁻¹ and a kon of 48500 M⁻¹ s⁻¹.

B22: 0377-YN3_T65D (antibody, V domains shown)
VH: B1 VH with H59D, L106Y
VL: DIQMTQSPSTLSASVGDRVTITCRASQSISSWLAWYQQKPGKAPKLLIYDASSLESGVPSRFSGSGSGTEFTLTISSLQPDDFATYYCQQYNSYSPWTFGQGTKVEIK
notes: source: Expi293F, transfected
In assay [1], B22 registered a Kd of 634 nM, a koff of 0.000153 s⁻¹ and an on-rate constant (kon) of 242 M⁻¹ s⁻¹. In addition, in assay [2], the affinity, expressed as Kd, was 13.4 nM; the koff worked out at 0.000269 s⁻¹; the kon stood at 20100 M⁻¹ s⁻¹.

B23: 0387-YN3_T65P (antibody, V domains shown)
VH: B1 VH with H59P, L106Y
VL: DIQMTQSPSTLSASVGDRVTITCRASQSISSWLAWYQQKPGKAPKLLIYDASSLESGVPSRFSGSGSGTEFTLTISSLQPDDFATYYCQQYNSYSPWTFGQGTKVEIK
notes: source: Expi293F, transfected
Consider B23, for which, in assay [2], binding was characterised by a dissociation constant (Kd) of 9.21 nM, the koff was 9.1e-05 s⁻¹ and the kon worked out at 9880 M⁻¹ s⁻¹.

B24: 0318-IN3_T65Y (antibody, V domains shown)
VH: B1 VH with H59Y, L106I
VL: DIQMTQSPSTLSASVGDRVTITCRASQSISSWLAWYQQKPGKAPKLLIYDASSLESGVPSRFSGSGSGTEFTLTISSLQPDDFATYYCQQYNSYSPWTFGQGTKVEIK
notes: source: Expi293F, transfected
On to B24, for which, in assay [1], the Kd is 1.07 nM, the koff is 0.000222 s⁻¹ and the kon came to 207000 M⁻¹ s⁻¹. In assay [2], this molecule came in with a Kd of 29.4 nM, a koff of 0.00117 s⁻¹ and a kon of 39800 M⁻¹ s⁻¹.

B25: 0330-LN3_T65P (antibody, V domains shown)
VH: B1 VH with H59P
VL: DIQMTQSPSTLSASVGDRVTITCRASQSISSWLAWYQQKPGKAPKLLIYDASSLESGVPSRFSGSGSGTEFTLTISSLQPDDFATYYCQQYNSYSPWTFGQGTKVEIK
notes: source: Expi293F, transfected
In assay [1], B25 displayed a Kd of 686 nM, a koff of 0.00219 s⁻¹ and a kon of 3190 M⁻¹ s⁻¹. In assay [2], this molecule returned a Kd of 32.6 nM, a koff of 0.00229 s⁻¹ and an on-rate constant (kon) of 70200 M⁻¹ s⁻¹.

B26: 0301-IN3_T65D (antibody, V domains shown)
VH: B1 VH with H59D, L106I
VL: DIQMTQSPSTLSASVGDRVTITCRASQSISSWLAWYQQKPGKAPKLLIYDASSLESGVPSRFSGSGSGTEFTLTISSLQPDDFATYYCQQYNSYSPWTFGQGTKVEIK
notes: source: Expi293F, transfected
In assay [1], B26 had a Kd of 306 nM, a koff of 6.75e-05 s⁻¹ and a kon of 221 M⁻¹ s⁻¹. In assay [2], this molecule yielded a dissociation constant Kd of 6.38 nM, a koff of 0.000601 s⁻¹ and a kon of 94200 M⁻¹ s⁻¹.

B27: 0310-IN3_T65N (antibody, V domains shown)
VH: B1 VH with H59N, L106I
VL: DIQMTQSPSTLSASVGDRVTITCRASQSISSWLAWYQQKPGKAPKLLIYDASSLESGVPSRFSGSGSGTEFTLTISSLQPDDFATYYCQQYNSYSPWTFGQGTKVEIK
notes: source: Expi293F, transfected
As to B27, in assay [2], binding was put at a Kd of 15.2 nM, the koff is 0.000949 s⁻¹ and the kon came out at 62500 M⁻¹ s⁻¹.

B28: 0338-MN3_T65A (antibody, V domains shown)
VH: B1 VH with H59A, L106M
VL: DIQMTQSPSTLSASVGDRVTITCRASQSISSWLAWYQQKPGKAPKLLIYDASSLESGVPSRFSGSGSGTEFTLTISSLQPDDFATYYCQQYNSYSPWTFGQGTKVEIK
notes: source: Expi293F, transfected
Turning to B28, in assay [1], the dissociation constant (Kd) came out at 373 nM, the koff amounted to 0.000121 s⁻¹ and the association rate constant (kon) is 325 M⁻¹ s⁻¹. In assay [2], the Kd is 25 nM, the koff was 0.00154 s⁻¹ and the kon is 61800 M⁻¹ s⁻¹.

B29: 0370-N3_T65R (antibody, V domains shown)
VH: B1 VH with H59R, L106R
VL: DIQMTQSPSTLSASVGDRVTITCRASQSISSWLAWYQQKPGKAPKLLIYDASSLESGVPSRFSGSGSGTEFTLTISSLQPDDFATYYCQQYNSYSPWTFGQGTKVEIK
notes: source: Expi293F, transfected
Take B29: in assay [1], the Kd came out at 111 nM, the off-rate constant (koff) was determined as 3.63e-05 s⁻¹ and the kon turned out to be 328 M⁻¹ s⁻¹. In assay [2], this molecule yielded a Kd of 12.1 nM, a koff of 0.000266 s⁻¹ and a kon of 22000 M⁻¹ s⁻¹.

The values are drawn from PMC10713552 (Communications Biology, 2023).
